Data published in PMC10415144, “Structural insights into CodY activation and DNA recognition” (Nucleic Acids Research, 2021).
Residue numbers refer to the chain shown, from its start.

B1: Enterococcus faecalis CodY (EfCodY), full length (natural protein)
chain: GAMATLLEKTRQVNELLQKNNLFDVQAELPYNKMAMILGDILESNAYIISSSGDLLGYTEKLDVNNARIKNMFKEKKFPQGYTEAVDMLKVTEANIPIDSDLTAFPFESRELYPFGLTTIVPLYGAGKRLGTIILARVEKSFNEDDLVLAEYSATVVGMQILYHQSRTIEAEVRSATAVQMAINTLSYSELKAVHAIFEALDGEEGRLTASSIADEIGITRSVIVNALRKLESAGIIESRSLGMKGTYLKVLNQQFIKELEK
notes: also called CodY from Ef
B2: EfCodY quadruple mutant (Tyr186, Arg238, Leu240 and Tyr246 replaced with Ala) (natural protein)
chain: B1 chain with Y188A, R240A, L242A, Y248A
notes: also called EfCodY-mutant

Tests used:
[1] = target: the molecule itself; assay: mass photometry; Refeyn OneMP; 100 nM CodY, ligand-free, 20 mM Tris-HCl pH 8, 200 mM NaCl
[2] = target: the molecule itself; assay: mass photometry + SEC-MALS; data not shown; EfCodY quadruple mutant in solution

Row | Protein | stoichiometry N [1] | stoichiometry N [2]
1 | B1 | 2 | 
2 | B2 |  | 2
